Source: patent US5559019

Assays:
[1] = target: SF2/ASF (wild type) (Homo sapiens (Human)) (UniProt Q07955)
[2] = target: myelin basic protein (MBP)

Km for phosphorylation of SF2/ASF [1]: 0.07 µM
Vmax for phosphorylation of SF2/ASF [1]: 0.45 pmol per min
Km for phosphorylation of MBP [2]: 5.8 µM
Vmax for phosphorylation of MBP [2]: 0.02 pmol per min
Substance: SR protein-specific kinase, SRPK1 (enzyme)
